How the values were obtained:
[1] = biological target: Vibrio harveyi chitoporin (VhChiP), recombinant, mature trimer (Vibrio harveyi type strain 650); assay: single-channel current recording in a planar lipid bilayer (BLM); purified VhChiP added to the cis side of a DPhPC bilayer, 1 M KCl, 20 mM HEPES pH 7.5; closure induced by higher voltage (+200 mV)
[2] = biological target: Vibrio harveyi chitoporin (VhChiP), recombinant, mature trimer (Vibrio harveyi type strain 650); assay: SDS-PAGE of samples unheated or heated at up to 60°C; purified VhChiP (peak P2 of the ion exchange) unheated or heat-treated for 10 min, run on a 10% polyacrylamide gel; trimer to monomers

stoichiometry N [1]: 3
stoichiometry N [2]: 3
Substance: Vibrio harveyi chitoporin (VhChiP), recombinant, mature trimer (natural protein)

— PMC3558487
